Measured values reported in patent US20220242958A1 (published 2022).

T1: recombinant IL-3Rα ectodomain (UniProt P26951 19-305, limits assumed)
T1 construct: extracellular domain; also called IL-3Ra ectodomain; recombinant IL-3Ra
T1 sequence (looked up): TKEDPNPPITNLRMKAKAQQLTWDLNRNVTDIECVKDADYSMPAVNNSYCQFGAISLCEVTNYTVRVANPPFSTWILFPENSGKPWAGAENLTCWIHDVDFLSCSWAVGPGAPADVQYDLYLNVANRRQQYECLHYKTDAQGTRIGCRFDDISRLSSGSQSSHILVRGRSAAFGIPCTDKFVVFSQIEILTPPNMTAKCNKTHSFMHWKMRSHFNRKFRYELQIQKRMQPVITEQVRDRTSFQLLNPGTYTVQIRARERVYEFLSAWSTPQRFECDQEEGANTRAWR

T2: IL23R, cell-expressed on human T cells (human, UniProt Q5VWK5 24-629)
T2 sequence (looked up): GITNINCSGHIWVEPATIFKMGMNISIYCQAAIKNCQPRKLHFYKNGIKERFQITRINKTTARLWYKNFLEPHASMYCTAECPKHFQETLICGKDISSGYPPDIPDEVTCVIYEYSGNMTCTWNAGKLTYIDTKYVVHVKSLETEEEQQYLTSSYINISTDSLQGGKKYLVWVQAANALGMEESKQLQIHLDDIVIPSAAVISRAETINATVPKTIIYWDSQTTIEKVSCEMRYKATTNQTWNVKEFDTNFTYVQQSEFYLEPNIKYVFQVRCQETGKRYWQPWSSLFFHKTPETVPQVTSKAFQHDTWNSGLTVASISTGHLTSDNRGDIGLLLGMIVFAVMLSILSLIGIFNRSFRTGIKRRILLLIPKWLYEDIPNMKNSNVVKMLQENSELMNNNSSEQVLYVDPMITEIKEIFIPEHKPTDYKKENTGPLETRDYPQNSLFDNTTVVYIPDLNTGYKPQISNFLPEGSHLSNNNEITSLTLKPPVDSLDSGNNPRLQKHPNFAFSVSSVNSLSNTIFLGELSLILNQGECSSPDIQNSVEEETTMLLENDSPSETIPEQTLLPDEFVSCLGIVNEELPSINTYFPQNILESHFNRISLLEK

T3: IL12Rβ2-Fc (human, UniProt Q99665 24-622)
T3 construct: extracellular domain; bought; also called hIL-12Rβ2-Fc; Fc-fusion of human IL12Rβ2 extracellular domain (R&D Systems #1959-B2)
T3 sequence (looked up): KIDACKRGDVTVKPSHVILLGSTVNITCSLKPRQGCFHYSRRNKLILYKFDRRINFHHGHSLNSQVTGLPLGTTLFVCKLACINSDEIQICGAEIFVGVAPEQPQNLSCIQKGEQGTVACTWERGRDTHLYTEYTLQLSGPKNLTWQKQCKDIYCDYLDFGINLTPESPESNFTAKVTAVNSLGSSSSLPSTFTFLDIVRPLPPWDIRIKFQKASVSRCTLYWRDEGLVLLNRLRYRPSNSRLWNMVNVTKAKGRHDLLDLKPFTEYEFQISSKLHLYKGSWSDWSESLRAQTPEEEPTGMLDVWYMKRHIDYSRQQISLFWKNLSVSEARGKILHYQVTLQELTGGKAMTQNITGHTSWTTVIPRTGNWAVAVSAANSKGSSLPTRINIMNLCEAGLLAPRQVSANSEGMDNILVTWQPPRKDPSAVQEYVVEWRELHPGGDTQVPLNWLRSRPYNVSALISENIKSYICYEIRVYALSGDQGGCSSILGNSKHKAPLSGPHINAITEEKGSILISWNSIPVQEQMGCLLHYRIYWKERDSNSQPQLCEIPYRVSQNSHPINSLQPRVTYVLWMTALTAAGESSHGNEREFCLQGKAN


Tests used:
[1] = molecular target: T4, human CD4, cell-expressed (human, UniProt P01730 26-458); test: cell-based or functional assay
[2] = molecular target: T5, human CXCR4 (on cells, membrane extracts or viral lipoparticles) (human, UniProt P61073 1-352); test: cell-based or functional assay
T5 sequence (P61073 whole entry, the tested form may be a part): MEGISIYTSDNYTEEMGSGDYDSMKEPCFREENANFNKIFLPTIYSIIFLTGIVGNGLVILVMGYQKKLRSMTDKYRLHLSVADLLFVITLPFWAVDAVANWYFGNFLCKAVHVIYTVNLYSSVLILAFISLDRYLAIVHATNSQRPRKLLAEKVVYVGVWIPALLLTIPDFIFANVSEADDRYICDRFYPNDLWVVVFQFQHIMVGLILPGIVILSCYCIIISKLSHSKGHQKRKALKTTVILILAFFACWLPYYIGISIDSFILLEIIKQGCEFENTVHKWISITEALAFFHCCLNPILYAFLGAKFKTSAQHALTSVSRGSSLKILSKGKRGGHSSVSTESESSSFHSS

[3] = molecular target: T1, recombinant IL-3Rα ectodomain; test: ELISA, recombinant IL-3Ra
[4] = molecular target: T2, IL23R, cell-expressed on human T cells; test: cell-based or functional assay
[5] = molecular target: T4, human CD4, cell-expressed; test: FACS, MOLM-13 cells
IL12Rβ2-Fc = molecular target: T3, IL12Rβ2-Fc; test: SPR and competition ELISA, against IL12Rb2#1
[6] = molecular target: T5, human CXCR4 (on cells, membrane …); test: ELISA, hCXCR4 VLPs
[7] = molecular target: CXCR4 and CD4 co-expressed on cells (human, UniProt P61073 1-352; P01730 26-458); test: cell-based or functional assay
CXCR4 and CD4 co-expressed on cells, sequence (P61073 whole entry, chain 1 of 2, other chains not shown): as the sequence (P61073 whole entry, the tested form may be a part) above

| Binder | Fold inc. vs anti-CXCR4 building block, Jurkat E6-1 [2] | Fold inc. vs anti-CXCR4 building block, MOLM-13 [2] | IC50, CXCL-12 induced chemotaxis, Jurkat E6-1 [2] | IC50, CXCL-12 induced chemotaxis, MOLM-13 [2] | binding result [3] | further results |
| --- | --- | --- | --- | --- | --- | --- |
| 03F11 (CD4#8, Table 10) (VHH) VHH: EVQLVESGGGSVQPGGSLTLSCGTSGRTFNVMGWFRQAPGKEREFVAAVRWSSTGIYYTQYADSVKSRFTISRDNAKNTVYLEMNSLKPEDTAVYYCAADTYNSNPARWDGYDFRGQGTQVTVSS |  |  |  |  |  | IC50, HIV-1 BaL(R5) in PBMC [1]: 610 nM |
| 281F12-57A07 (4CXCR281F12(Q108L)-35GS-A0110057A07) (bispecific antibody, the entry carries a c-myc-His6 tag; also made as Flag3-His6-tagged protein; also called CXCR4#2-CD123#1; BI#4/18) EVQLVESGGGLVQAGDSLRLSCAASGRAFSRYAMGWFRQAPGKEREFVAAIGWGPSKTNYADSVKGRFTISRDNAKNTVYLQMNTLKPEDTAVYSCAAKFVNTDSTWSRSEMYTYWGQGTLVTVSSGGGGSGGGGSGGGGSGGGGSGGGGSGGGGSGGGGSEVQLVESGGGLVQAGGSLRLSCAASGSIFSGNVMGWYRRQAPGKEREWVAAIASGGSIYYRDSVKGRFTISRDNAKNTVYLQMNSLKPEDTAVYYCNSHPPTLPYWGQGTLVTVSSAAAEQKLISEEDLNGAAHHHHHH | 2.55 fold | 12.6 fold | 38 nM | 6.83 nM | binds |  |
| IL23R#19-CD4#8 (bispecific antibody, also called BI#42; T023200042) EVQLVESGGGLVQPGGSLTLSCVASGRTFSTDVMGWFRQAPGKEREFVAAHRTSGISTVYAASVKGRFTISRDNAKNTVYLGMKSLKPEDTAVYVCAAGSDASGGYDYWGQGTLVTVSSGGGGSGGGGSGGGGSGGGGSGGGGSGGGGSGGGGSEVQLVESGGGSVQPGGSLTLSCGTSGRTFNVMGWFRQAPGKEREFVAAVRWSSTGIYYTQYADSVKSRFTISRDNAKNTVYLEMNSLKPEDTAVYYCAADTYNSNPARWDGYDFRGQGTLVTVSS |  |  |  |  |  | IC50, IL-17 release PBMC D840 [4]: 58.9 nM; fold ctrl, IL-17 release PBMC D840 [4]: 1.7 fold; binding result [5]: binds |
| IL12Rb2#2: 135A07 (VHH, also called LG135A07; IL12Rβ2#2) VHH: EVQLVESGGRLVQAGDSLRLSCAASGRTFTSYRMGWFRQAPGKEREFVSALRWSSGNIDYTYYADSVKGRFSISGDYAKNTVYLQMNSLKAEDTAVYYCAASTRWGVMESDTEYTSWGQGTLVTVSS |  |  |  |  |  | fold difference in KD and ligand competition between the family members (IL12Rβ2-Fc): 3.5 fold |
| 281F12-25GS-03F11 (bispecific antibody, also called CXCR4#2-25GS-CD4#8) EVQLVESGGGLVQAGDSLRLSCAASGRAFSRYAMGWFRQAPGKEREFVAAIGWGPSKTNYADSVKGRFTISRDNAKNTVYLQMNTLKPEDTAVYSCAAKFVNTDSTWSRSEMYTYWGQGTQVTVSSGGGGSGGGGSGGGGSGGGGSGGGGSEVQLVESGGGSVQPGGSLTLSCGTSGRTFNVMGWFRQAPGKEREFVAAVRWSSTGIYYTQYADSVKSRFTISRDNAKNTVYLEMNSLKPEDTAVYYCAADTYNSNPARWDGYDFRGQGTQVTVSS |  |  |  |  |  | binding result [6]: binds; IC50, HIV-1 NL 4.3(X4) in MT-4 [7]: 0.21 nM; IC50, HIV-1 NL 4.3(X4) in PBMC [7]: 0.12 nM; IC50, HIV-1 NL 4.3 (X4) in U87 [7]: 2.67 nM |
| 281F12-55A01 (4CXCR281F12(Q108L)-35GS-A0110055A01) (bispecific antibody, the entry carries a c-myc-His6 tag; also made as Flag3-His6-tagged protein; also called CXCR4#2-CD123#2; BI#3/17) EVQLVESGGGLVQAGDSLRLSCAASGRAFSRYAMGWFRQAPGKEREFVAAIGWGPSKTNYADSVKGRFTISRDNAKNTVYLQMNTLKPEDTAVYSCAAKFVNTDSTWSRSEMYTYWGQGTLVTVSSGGGGSGGGGSGGGGSGGGGSGGGGSGGGGSGGGGSEVQLVESGGGSVQAGGSLRLSCTTSGRALNMYVMGWFRQAPGNEREFVAATSSSGGSTSYPDSVKGRFTISRDNAKNTVYLQMNSLKPEDTAAYRCAASPYVSTPTMNILEEYRYWGQGTLVTVSSAAAEQKLISEEDLNGAAHHHHHH | 1.13 fold | 10.9 fold | 86 nM | 7.85 nM | binds |  |
